Data set [1] addresses T1, FUS∆LCD (UniProt P35637 164-526). Kind of data set: fluorescence titration (Cy3-protein intensity). Particulars: apparent Kd; concentration as rNMP (nucleotides), not molecules; Hill fit n 3.07; Buffer, salt, pH and temperature of the fluorescence titrations are not given in the material; concentrations are in nucleotide units. Poly(ADP-ribose) (Kd,app …).
The target in data set [2] is T1, FUS∆LCD. Kind of data set: fluorescence titration (Cy3-protein intensity); apparent Kd; concentration as dNMP (nucleotides), not molecules; Hill fit n 1.12; Buffer, salt, pH and temperature of the fluorescence titrations are not given in the material; concentrations are in nucleotide units. Poly(ADP-ribose) (Kd,app). Particulars: protein: recombinant; tags: Cy3 label (sulfo-cyanine 3 NHS ester); blunt; one-nucleotide gap between strands 1 and 2, opposite G of strand 3.

Our source for the Kd values is paper PMC9654039, “FUS Microphase Separation: Regulation by Nucleic Acid Polymers and DNA Repair Proteins”.

T1 sequence (P35637 164-526): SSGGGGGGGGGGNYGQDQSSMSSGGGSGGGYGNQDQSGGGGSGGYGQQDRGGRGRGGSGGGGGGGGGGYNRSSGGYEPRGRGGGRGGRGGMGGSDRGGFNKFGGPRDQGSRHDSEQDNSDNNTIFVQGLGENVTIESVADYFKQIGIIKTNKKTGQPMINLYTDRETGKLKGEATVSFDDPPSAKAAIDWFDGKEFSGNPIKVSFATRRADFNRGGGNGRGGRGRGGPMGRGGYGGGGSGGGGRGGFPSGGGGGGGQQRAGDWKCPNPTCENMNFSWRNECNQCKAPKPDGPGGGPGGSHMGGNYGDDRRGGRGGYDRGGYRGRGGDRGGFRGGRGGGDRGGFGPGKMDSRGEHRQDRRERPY

As to RNA (~3000 nt luciferase mRNA), in the data set with FUS∆LCD [1], the Kd was determined as 183 nM.

B1: dsDNA (30 bp, one-nucleotide gap) (dsDNA)
DNA 1: GGGTTGGTTTGCG
DNA 2: ATTCACAGTTCTCCGC
DNA 3: GCGGAGAACTGTGAATGCGCAAACCAACCC
modifications: 5'-phosphate on S4 (downstream strand); 3'-OH on S3
For the molecule B1, the Kd in the data set with FUS∆LCD [2] stood at 2560 ± 159 nM.
